Measurements: patent publication US20180258175A1 (ABLEXIS, published 2018)
Changes are numbered by the printed parent chain.

B1: CCK-516A (antibody, V domains shown)
VH: not shown
VL: DIVMTQTPLSLPVTPGEPASISCRSSQSLLDSDDGNTYLDWYLQKPGQSPQLLIYTLSYRASGVPDRFSGSGSGTDFTLKISRVEAEDVGVYYCMQRIEFPLTFGGGTKVEIK
notes: AlivaMab chimeric IgG, human kappa LC
B2: 429 (Table 4, bin 1C block) (antibody, V domains shown)
VH: QVQLEQSGAEVKRPGASVKVSCKASGYTFTGYYMHWVRQAPGQGLEWMGWINPNRGDTNYAQKFQGRVTMTRDTSISTAYMELSRLRSDDTAVYYCARDLEGGGPFDYWGQGTLVTVSS
VL: B1 VL with L102S, G106Q, K109R, V110L
notes: not tied
B3: CCK-421A (antibody, V domains shown)
VH: QVQLQESGPGLVKPSETLSLTCTVTGGSISSYYWSWIRQPAGKGLEWIGRIYTSGSTNYNPSLKSRVTMSVDTSKNHFSLKLSSVTAADTAVYYCAREILVVVAATRTGGVFDIWGQGTMVTVSS
VL: DIQMTQSPSTLSASVGDRVTITCRASQSISSWLAWYQRKPGKAPKLLIYKASTLESGVPSRFSGSGSGTEFTLTISSLQPDDFATYYCQQFNSYWTFGQGTKVEIK
notes: as for B1
B4: CCK-464A (antibody, V domains shown)
VH: EVQLVESGGGLVKPGGSLRLSCAASGFTFSSYNMNWVRQAPGKGLEWVSSISSSSTYIYYADSLKGRFTISRDNAMNSLYLQMSSLRAEDTAVYYCARDSGTYPYYYFGMDVWGQGTTVTVSS
VL: DIQLTQSPSFLSASVGDRVTITCRASQGISSYLAWYQQKPGKAPKLLIYAASTLQSGVPSRFSGSGSGTEFTLTISSLQPEDFATYYCQQLNTYPRTFGQGTKVEIK
notes: as for B1
B5: CCK-461A (antibody, V domains shown)
VH: QVQLQESGPGLVKPSETLSLTCTVSGGSISSYYWTWIRQPPGKGLEWIGYISYSGGTNYNPSLKSRVTISVDTSKNQFSLKLSSVTAADTAVYYCARELGNYWGQGTLVTVSS
VL: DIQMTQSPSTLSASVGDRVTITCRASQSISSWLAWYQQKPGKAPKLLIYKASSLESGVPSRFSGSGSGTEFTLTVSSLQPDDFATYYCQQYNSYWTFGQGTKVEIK
notes: as for B1
B6: CCK-525A (antibody, V domains shown)
VH: QVQLVESGGGVVQPGRSLRLSCAASGFTFSSYGMHWVRQAPGKGLEWVAVIWYDGSIKYYADSVKGRFTISRDNSKNTLYLQMNSLRAEDTAVYYCARATYYYDSSGYYSNWFDPWGQGTLVTVSS
VL: DIQMTQSPSSVSASVGDRVTITCRASQGISSWLAWYQQKPGKAPKLLIYAASSLQSGVPSRFSGSGSGTDFTLTISSLQPEDFATYYCQQANTFPFTVGPGTKVDIK
notes: as for B1
B7: CCK-514A (antibody, V domains shown)
VH: EVQLVESGGGLVKPGGSLRLSCAASGFTFSSYSMNWVRQAPGKGLEWVSSISSSSSYIYYADSVKGRFTISRDNAKNSLYLQMNSLRAEDTAVYYCARGGSYPYNWFDPWGQGTLVTVSS
VL: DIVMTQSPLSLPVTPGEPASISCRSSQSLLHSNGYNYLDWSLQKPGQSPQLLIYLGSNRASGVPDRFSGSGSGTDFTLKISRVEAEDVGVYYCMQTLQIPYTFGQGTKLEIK
notes: as for B1

The binders below were run against T1, human CD115 extracellular domain (Sino Biological 10161-H08H) (human, UniProt P07333 20-517) (assay: competition ELISA, competitor TMR 44B;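 note: binding of antibodies from single-clone hybridoma supernatants to huCD115 measured with the competitor antibody present, a drop in signal meaning both share an epitope bin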).
T1 construct: extracellular domain; bought recombinant protein; also called huCD115; hu-CD115
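Note: low signal means same epitope bin as the mouse competitor antibody.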

| Binder | signal vs NO COMP=100 [%] |
| --- | --- |
| B1 | 10 |
| B2 | 45 |
| B3 | 55 |
| B4 | 0 |
| B5 | 41 |
| B6 | 56 |
| B7 | 4 |

What follows are binders tested against T1, human CD115 extracellular domain (Sino …) (assay: competition ELISA, competitor TMR 100A;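 note: clonal anti-huCD115 hybridoma supernatants tested for binding with the competitor antibody present, clones failing to bind are assigned to the competitor's epitope bin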).

| Binder | signal vs NO COMP=100 [%] |
| --- | --- |
| B1 | 87 |
| B2 | 107 |
| B3 | 99 |
| B4 | 96 |
| B5 | 110 |
| B6 | 100 |
| B7 | 103 |

The binders below were run against T1, human CD115 extracellular domain (Sino …) (assay: competition ELISA, competitor TMR 35A;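 note: clonal hybridoma supernatant antibodies added to wells after the competitor mouse antibody, lost binding signal puts an antibody in that competitor's epitope bin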).

| Binder | signal vs NO COMP=100 [%] |
| --- | --- |
| B1 | 82 |
| B2 | 112 |
| B3 | 100 |
| B4 | 85 |
| B5 | 110 |
| B6 | 88 |
| B7 | 75 |

What follows are binders tested against T1, human CD115 extracellular domain (Sino …) (assay: competition ELISA, competitor TMR 24A;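 note: clonal anti-huCD115 hybridoma supernatant antibodies bound with a competitor mouse antibody present, and failure to bind puts a clone in that competitor's epitope bin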).

| Binder | signal vs NO COMP=100 [%] |
| --- | --- |
| B1 | 39 |
| B2 | 75 |
| B3 | 18 |
| B4 | 39 |
| B5 | 27 |
| B6 | 13 |
| B7 | 53 |

The binders below were run against T1, human CD115 extracellular domain (Sino …) (assay: competition ELISA, competitor TMR 20A;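 note: epitope binning by ELISA, anti-huCD115 hybridoma supernatant antibodies tested for binding to huCD115 with the competitor antibody present, loss of binding placing them in the competitor's bin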).

| Binder | signal vs NO COMP=100 [%] |
| --- | --- |
| B1 | 70 |
| B2 | 84 |
| B3 | 104 |
| B4 | 87 |
| B5 | 110 |
| B6 | 80 |
| B7 | 84 |

These binders were tested against T1, human CD115 extracellular domain (Sino …) (assay: competition ELISA, competitor TMR 95A;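 note: clonal anti-huCD115 hybridoma supernatants tested for binding while a competitor mouse antibody is present, where failure to bind assigns them to that competitor's epitope bin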).

| Binder | signal vs NO COMP=100 [%] |
| --- | --- |
| B1 | 20 |
| B2 | 38 |
| B3 | 9 |
| B4 | 57 |
| B5 | 15 |
| B6 | 11 |
| B7 | 42 |
